Source: PMC8590968

Tests used:
[1] = biological target: Sambucus nigra lectin (Sambucus nigra); experiment: immunostaining of cells or tissue
[2] = biological target: Maackia amurensis lectin II (Maackia amurensis); experiment: immunostaining of cells or tissue

Sequence of Sambucus nigra lectin (Sambucus nigra) (Q41358 29-289 limits assumed, chain 1 of 2): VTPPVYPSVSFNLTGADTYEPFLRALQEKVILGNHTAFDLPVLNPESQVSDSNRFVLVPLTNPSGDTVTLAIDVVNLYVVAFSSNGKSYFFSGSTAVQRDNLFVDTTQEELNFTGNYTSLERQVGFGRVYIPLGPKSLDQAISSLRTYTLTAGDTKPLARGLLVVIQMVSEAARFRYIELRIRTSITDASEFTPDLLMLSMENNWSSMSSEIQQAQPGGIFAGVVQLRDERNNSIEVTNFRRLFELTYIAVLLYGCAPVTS
Sequence of Sambucus nigra lectin (Sambucus nigra) (Q41358 309-570 limits assumed, chain 2 of 2): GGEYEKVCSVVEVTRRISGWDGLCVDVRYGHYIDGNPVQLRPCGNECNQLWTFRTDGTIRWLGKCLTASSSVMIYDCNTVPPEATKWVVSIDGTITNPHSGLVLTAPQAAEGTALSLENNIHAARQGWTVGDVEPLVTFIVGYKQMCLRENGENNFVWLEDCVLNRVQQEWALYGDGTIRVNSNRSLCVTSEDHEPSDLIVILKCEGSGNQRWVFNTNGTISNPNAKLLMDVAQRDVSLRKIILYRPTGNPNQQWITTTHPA

Substance | percent reduction of lectin bound to MDCK cells [1] [%] | percent reduction of lectin bound to MDCK cells [2] [%]
desialylated bovine lactoferrin (natural protein) | 60 | 
native bovine lactoferrin (natural protein) |  | 40
